No end group written: not given here. *: point of attachment. FITC = O=C1OC2(c3ccc(O)cc3Oc3cc(O)ccc32)c2ccc(NC(=S)*)cc21
What was measured:
[1] = target: T1, 6xHis-tagged LC8 (DYNLL2) (human, UniProt Q96FJ2 1-89); experiment: fluorescence polarisation
[2] = target: T1, 6xHis-tagged LC8 (DYNLL2); experiment: SPR
Target sequence in this assay (Q96FJ2 whole entry): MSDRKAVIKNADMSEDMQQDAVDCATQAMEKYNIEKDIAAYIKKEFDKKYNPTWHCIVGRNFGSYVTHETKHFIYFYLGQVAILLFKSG

Binder | binding result [1] | Kd [1] | Kd [2]
{FITC}-TSQEDKATQTL [FITC-labeled BMF peptide (FITC-TSQEDKATQTL)] | binds | – | –
KESCNMETQTS [OFD1 peptide (KESCNMETQTS)] | – | 12.8 µM | 12.5 ± 1.3 µM

From doi:10.1101/2023.09.15.557927 (bioRxiv, 2023)
